This note sets out measurements from US7119077B1, “Multimeric forms of members of the steroid/thyroid superfamily of receptors with the ultraspiracle receptor” (The Salk Institute for Biological Studies, priority 1990, dated 2006).

For data set [1], the target named is T1, EcR/usp heterodimer (Drosophila melanogaster, UniProt P34021;P20153 P34021:1-878,P20153:1-508).
T1 sequence 1: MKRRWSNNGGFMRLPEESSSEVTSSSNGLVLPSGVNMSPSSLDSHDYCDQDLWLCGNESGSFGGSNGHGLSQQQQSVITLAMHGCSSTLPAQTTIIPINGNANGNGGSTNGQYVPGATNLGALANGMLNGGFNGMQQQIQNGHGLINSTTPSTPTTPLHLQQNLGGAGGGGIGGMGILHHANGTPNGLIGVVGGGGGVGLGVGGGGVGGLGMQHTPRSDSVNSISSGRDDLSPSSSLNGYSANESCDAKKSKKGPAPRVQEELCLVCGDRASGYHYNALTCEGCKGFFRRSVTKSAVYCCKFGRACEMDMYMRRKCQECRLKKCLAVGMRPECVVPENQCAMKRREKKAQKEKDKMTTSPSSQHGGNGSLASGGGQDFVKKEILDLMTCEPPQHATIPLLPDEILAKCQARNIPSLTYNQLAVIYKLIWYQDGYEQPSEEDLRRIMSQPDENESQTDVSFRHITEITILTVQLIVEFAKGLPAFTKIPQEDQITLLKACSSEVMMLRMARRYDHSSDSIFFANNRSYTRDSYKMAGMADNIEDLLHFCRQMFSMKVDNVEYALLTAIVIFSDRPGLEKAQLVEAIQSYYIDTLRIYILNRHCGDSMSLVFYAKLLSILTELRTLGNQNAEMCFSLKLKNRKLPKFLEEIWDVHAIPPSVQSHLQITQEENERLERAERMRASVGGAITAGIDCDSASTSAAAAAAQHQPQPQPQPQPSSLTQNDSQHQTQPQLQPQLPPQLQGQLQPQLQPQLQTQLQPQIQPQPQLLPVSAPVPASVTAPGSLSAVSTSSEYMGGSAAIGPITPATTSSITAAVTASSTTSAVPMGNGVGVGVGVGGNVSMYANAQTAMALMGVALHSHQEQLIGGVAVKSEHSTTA
T1 sequence 2: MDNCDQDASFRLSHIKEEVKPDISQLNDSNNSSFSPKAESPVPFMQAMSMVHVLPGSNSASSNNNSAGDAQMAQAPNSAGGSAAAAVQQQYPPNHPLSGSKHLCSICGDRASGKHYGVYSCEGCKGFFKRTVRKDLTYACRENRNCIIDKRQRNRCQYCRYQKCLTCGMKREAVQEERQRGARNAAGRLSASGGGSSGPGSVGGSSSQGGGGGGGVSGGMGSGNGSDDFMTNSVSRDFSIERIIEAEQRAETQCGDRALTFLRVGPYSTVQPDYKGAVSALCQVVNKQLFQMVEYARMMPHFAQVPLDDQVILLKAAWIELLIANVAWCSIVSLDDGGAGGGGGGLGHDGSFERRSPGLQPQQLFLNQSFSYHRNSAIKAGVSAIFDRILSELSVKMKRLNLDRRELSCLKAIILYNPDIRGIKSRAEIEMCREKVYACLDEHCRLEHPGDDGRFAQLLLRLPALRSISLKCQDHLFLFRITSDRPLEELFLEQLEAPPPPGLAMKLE
Kind of data set: competition; does not compete hsp27-EcRE binding.

The next data set concerns the target T2, ultraspiracle (usp) (Drosophila melanogaster, UniProt P20153 SEQ:1-513).
T2 sequence: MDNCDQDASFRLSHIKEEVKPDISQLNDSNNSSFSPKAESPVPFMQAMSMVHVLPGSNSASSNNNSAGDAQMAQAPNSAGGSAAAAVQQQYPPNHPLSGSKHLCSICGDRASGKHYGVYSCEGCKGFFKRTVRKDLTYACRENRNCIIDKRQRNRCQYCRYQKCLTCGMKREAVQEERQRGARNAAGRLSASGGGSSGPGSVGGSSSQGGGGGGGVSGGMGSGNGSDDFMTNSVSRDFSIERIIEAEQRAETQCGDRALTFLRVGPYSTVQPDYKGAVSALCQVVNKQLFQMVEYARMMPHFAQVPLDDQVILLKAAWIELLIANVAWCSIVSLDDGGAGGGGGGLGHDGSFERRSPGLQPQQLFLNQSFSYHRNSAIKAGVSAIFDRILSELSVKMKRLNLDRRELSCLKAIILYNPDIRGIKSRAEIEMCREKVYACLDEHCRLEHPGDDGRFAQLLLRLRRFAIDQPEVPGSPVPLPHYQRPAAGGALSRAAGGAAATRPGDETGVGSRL
Put plainly: EMSA; usp alone. Particulars: label: 32P. As for the experimental part:
(§1) For gel mobility shift assay, proteins were incubated with binding buffer, which contained 100 mM KCl, 7.5% glycerol, 20 mM HEPES pH 7.5, 2 mM DTT and 0.1% NP-40, on ice for 20 minutes in the presence of 2 μg of nonspecific competitor poly dI-dC and other oligo competitors. Then approximately 1 ng of ^32P-dCTP probe, which was labelled to specific activity about 1-5×10^8 cpm/μg by fill-in reaction with Klenow fragments, was added to the reaction and incubated at room temperature for 20 minutes. Antiserum or preimmune serum was added 10 minutes after the probe was added. The reaction was then loaded into 5% non-denaturing polyacrylamide gel in 0.5×TBE running buffer [1×TBE comprises 0.089 M Tris borate, 0.089 M boric acid and 0.002 M EDTA]. After electrophoresis, the gel was dried for autoradiography.
(§2) The EcR and usp interaction was also tested under more defined conditions. In vitro translated EcR and usp were prepared and their interaction was assayed by gel mobility shift assays. […] To test whether usp can complement EcR DNA binding, as it does with mammalian receptors, both usp and EcR were co-incubated in the reaction. In the presence of both receptors, a novel high affinity DNA binding complex appeared. […] This complex is proposed to be a heterodimeric species, which is consistent with the observation of other usp heterodimers.

Data set [2] addresses T1, EcR/usp heterodimer. Put plainly: EMSA; high affinity complex; usp antibody supershift. To be noted: label: 32P. As for the experimental part:
as §1, §2

The next data set has as its target T3, Ecdysone receptor (EcR) (Drosophila melanogaster, UniProt P34021 P34021:1-878).
T3 sequence: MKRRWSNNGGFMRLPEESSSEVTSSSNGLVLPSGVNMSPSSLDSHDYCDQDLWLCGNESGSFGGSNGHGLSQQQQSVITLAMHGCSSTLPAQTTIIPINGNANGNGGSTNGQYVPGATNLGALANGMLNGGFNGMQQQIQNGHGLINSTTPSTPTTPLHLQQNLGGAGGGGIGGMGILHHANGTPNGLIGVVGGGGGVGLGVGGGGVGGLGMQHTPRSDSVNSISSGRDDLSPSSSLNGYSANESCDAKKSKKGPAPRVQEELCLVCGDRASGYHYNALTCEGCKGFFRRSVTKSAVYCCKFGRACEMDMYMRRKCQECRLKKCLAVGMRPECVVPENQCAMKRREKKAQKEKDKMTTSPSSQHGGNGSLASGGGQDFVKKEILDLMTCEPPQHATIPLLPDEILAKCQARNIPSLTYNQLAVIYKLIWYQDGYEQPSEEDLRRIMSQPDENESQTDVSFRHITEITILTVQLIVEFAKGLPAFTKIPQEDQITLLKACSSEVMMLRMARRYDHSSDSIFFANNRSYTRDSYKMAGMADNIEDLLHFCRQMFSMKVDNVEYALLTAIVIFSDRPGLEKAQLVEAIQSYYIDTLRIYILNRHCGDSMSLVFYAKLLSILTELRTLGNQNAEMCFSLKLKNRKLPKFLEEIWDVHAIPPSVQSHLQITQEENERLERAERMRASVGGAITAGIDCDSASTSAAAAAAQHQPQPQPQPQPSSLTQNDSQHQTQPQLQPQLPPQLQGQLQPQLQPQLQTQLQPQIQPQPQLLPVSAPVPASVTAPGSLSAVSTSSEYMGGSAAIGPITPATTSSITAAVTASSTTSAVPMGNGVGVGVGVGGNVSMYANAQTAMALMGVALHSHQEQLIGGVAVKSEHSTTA
Kind of data set: EMSA; EcR alone. Particulars: label: 32P. As for the experimental part:
as §1, §2
(A gel shift assay detects complexes by their altered migration in electrophoresis.)

A further data set has as its target T4, usp/TRβ heterodimer (Drosophila melanogaster / Homo sapiens, UniProt P20153;P10828 P20153:1-508,P10828:1-461).
T4 sequence 1: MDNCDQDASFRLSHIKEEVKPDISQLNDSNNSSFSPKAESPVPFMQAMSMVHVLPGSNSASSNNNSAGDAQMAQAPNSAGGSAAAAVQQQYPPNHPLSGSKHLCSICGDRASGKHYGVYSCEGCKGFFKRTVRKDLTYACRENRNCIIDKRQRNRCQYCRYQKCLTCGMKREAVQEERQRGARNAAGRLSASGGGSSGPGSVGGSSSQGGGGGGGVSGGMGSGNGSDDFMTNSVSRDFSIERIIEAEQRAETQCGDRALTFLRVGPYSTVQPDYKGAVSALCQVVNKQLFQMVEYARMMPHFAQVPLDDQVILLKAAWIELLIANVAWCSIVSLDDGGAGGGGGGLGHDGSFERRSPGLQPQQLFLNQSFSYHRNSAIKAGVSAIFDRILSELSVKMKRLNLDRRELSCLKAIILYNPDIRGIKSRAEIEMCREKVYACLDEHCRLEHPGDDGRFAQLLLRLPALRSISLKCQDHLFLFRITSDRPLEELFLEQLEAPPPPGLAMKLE
T4 sequence 2: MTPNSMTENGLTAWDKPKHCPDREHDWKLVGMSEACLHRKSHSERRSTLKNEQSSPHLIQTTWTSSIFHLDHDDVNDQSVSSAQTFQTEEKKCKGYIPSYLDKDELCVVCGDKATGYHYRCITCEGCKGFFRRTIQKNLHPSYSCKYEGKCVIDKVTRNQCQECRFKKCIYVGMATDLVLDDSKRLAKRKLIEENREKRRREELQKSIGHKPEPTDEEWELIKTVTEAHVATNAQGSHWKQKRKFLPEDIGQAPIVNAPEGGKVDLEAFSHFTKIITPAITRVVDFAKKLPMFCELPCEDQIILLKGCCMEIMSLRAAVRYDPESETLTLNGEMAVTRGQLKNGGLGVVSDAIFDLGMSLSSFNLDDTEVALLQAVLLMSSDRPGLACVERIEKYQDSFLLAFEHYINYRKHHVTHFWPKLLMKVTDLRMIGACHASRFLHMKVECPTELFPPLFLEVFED
Put plainly: EMSA; usp dependent; usp antibody supershift. To be noted: label: 32P. On the procedure:
as §1
Using in vitro translated usp protein, interaction of usp with three mammalian nuclear receptors (TRβ, VDR and PPAR) was tested in gel mobility shift assays with the appropriate response element for each of the three receptors as the probes.

B1: 11N-EcRE (dsDNA)
DNA 1: ATGCTGTGCATTGAACGTGCTCGA
DNA 2: TCGAGCACGTTCAATGCACAGCAT
Regarding B1, the binding result with EcR/usp heterodimer [1] is reported as “no binding”.

B2: hsp27-EcRE (dsDNA)
DNA 1: ATTGGACAAGTGCATTGAACCCTTGTCTCT
DNA 2: AGAGACAAGGGTTCAATGCACTTGTCCAAT
On to B2, for which the results for the binding result in the data set with ultraspiracle (usp), in the data set with EcR/usp heterodimer [2] and with Ecdysone receptor (EcR) were “no binding”, “binds” and “no binding”, respectively.

B3: MLV-TRE (DR4) (dsDNA)
DNA 1: GGGTCATTTCAGGTCC
DNA 2: GGACCTGAAATGACCC
In the case of B3, the binding result with usp/TRβ heterodimer is “binds”.
